The source of these data is patent US20100203046A1 (Biogen, published 2010).

Assay [1] addresses Human FcγRIIIa on natural killer (NK) cells of a donor (human, UniProt P08637 17-254). Briefly: cell-based or functional assay.
For assay [2], the target named is T1, human C1q (Sigma C0660) (human, UniProt P02745 23-245; P02746 28-253; P02747 29-245).
T1 construct: Bought protein; also called complement protein C1q
Briefly: C1q ELISA on CD2, purified.

Assay [3] concerns the target T2, human FcγRIII (CD16), CD16a (F158), on CD16-transfected Jurkat cells (human, UniProt P08637 17-254).
T2 construct: whole, on cells
Briefly: CD16 bridging assay, purified.

Assay [4] deals with T3, human FcγRI (CD64) on IFNγ-activated U937 cells (human, UniProt P12314 16-374).
T3 construct: whole, on cells; also called FcγR1
T3 sequence (P12314 16-374): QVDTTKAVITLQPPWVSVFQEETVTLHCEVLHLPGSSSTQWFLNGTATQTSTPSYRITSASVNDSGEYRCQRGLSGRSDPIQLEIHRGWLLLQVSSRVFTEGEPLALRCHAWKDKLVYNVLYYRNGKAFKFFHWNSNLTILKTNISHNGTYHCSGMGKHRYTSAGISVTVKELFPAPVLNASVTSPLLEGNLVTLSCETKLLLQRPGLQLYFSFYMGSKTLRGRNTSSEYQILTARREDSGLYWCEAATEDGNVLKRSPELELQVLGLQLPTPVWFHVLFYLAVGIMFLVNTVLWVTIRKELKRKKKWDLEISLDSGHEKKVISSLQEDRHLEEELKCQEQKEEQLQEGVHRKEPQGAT
Briefly: CD64 bridging assay, purified.

For assay [5], the target named is T2, human FcγRIII (CD16), CD16a (F158), on …. Briefly: CD16 bridging assay, transient.
The target in assay [6] is T4, GST-tagged FcγRIII, CD16a (V158) (UniProt P08637 17-208, limits assumed).
T4 construct: the canonical entry carries F there; Captured by biotinylated anti-GST mAb on streptavidin donor beads; also called GST-FcγRIII; not shown: GST tag
T4 sequence (P08637 17-208 F176V limits assumed): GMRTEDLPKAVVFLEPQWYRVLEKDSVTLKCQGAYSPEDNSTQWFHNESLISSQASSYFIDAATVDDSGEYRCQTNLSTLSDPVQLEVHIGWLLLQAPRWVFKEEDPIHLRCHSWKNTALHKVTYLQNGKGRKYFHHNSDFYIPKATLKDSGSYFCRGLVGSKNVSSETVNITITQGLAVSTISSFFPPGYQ
Briefly: AlphaScreen competition vs huIgG1 beads, purified. As to the method: The relative binding affinities to FcγRIII (CD16), of the variant antibodies, was determined using an AlphaScreen assay (Amplified Luminescent Proximity Homogeneous Assay, PerkinElmer, MA, USA). Laser excitation of a donor bead excites oxygen, which if in close proximity to an acceptor bead generates a cascade of chemiluminescent events, ultimately leading to fluorescence emission at 520-620 nm. […] The reaction was carried out for one hour in a 25 μl volume and plates were read in the Fusion Alpha reader (PerkinElmer).

Assay [7] deals with T4, GST-tagged FcγRIII, CD16a (V158). Briefly: summary of Table 4 assays (CD16a).
Assay [8] concerns the target T2, human FcγRIII (CD16), CD16a (F158), on …. Briefly: CD16 bridging assay, purified. The source holds these as a separate data set.
The target is the same in assay [9]. Briefly: CD16 bridging assay, transient. This is another data set of the same source.
Assay [10] has as its target T1, human C1q (Sigma C0660). Briefly: summary of Table 6 assays.
Assay [11] addresses T1, human C1q (Sigma C0660). Briefly: C1q ELISA on CD2, transient.
In assay [12] the target is T2, human FcγRIII (CD16), CD16a (F158), on …. Briefly: CD16 bridging assay, transient. This is another data set of the same source.
Assay [13] has the same target. Briefly: CD16 bridging assay, purified. The source holds these as a separate data set.
Assay [14] shares this target. Briefly: summary of Table 6 assays.

T1 sequence (P02745 23-245 limits assumed, chain 1 of 3): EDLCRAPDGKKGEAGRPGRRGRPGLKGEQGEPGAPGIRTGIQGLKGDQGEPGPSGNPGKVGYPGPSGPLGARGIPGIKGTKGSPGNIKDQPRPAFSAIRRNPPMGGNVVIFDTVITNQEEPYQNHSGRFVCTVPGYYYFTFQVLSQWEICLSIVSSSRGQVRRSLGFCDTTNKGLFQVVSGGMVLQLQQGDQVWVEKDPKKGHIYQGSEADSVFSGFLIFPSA
T1 sequence (P02746 28-253 limits assumed, chain 2 of 3): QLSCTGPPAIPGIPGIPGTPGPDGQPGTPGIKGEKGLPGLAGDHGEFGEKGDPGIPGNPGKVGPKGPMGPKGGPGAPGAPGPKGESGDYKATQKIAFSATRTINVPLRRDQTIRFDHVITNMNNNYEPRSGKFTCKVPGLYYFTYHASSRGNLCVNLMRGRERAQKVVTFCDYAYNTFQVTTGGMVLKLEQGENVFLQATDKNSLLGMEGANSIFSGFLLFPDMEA
T1 sequence (P02747 29-245 limits assumed, chain 3 of 3): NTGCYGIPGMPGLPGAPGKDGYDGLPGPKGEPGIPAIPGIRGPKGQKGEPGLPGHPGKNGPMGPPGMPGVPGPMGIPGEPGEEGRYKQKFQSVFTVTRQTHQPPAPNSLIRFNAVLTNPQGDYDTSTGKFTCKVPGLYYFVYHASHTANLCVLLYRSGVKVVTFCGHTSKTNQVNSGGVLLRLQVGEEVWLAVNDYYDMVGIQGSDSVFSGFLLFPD
T2 sequence (P08637 17-254): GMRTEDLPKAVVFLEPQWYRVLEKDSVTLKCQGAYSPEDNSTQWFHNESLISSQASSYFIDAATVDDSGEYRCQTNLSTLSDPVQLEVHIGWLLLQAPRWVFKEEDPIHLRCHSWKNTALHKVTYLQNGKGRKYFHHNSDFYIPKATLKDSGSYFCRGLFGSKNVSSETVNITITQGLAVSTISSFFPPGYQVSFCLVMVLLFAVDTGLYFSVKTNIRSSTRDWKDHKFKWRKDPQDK
Human FcγRIIIa on natural killer (NK) cells of a donor, sequence (P08637 17-254): as above

B1: chCB6-huIgG1 I332E (antibody, name in EU numbering)
heavy: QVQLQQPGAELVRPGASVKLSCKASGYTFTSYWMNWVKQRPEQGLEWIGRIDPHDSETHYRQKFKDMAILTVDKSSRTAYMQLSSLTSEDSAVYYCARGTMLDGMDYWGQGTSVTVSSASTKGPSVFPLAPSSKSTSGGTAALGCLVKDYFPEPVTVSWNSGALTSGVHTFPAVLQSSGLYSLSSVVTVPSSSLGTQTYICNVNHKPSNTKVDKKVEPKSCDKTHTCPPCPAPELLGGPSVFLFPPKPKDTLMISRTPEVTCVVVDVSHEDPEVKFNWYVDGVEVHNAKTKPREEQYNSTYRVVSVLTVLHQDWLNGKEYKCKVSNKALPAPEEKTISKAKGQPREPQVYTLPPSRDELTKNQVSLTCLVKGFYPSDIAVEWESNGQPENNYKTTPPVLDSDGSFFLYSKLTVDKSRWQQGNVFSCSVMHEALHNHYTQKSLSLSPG
light: QIVLTQSPAIMSASPGEKVTMTCRASSSVSHMHWYQQKSGTSPKRWIYDTSKLASGVPARFSGSGSGTSYSLTISSVEAEDAATYYCQQWSSNPLTFGAGTKLELKRTVAAPSVFIFPPSDEQLKSGTASVVCLLNNFYPREAKVQWKVDNALQSGNSQESVTEQDSKDSTYSLSSTLTLSKADYEKHKVYACEVTHQGLSSPVTKSFNRGEC
notes: copies: 2 + 2
For the molecule B1, the “ADCC NK cell, purified (fold increase vs WT)” value in assay [1] stood at 24 fold. Also, the binding result in [2] and in [4] was “binds” in each case. The “fold increase in binding vs WT” value amounted to 7 fold in assay [3], 20 fold in [5] and 8 fold in assay [6].

B2: chCB6-huIgG1 S239D/I332E (antibody, name in EU numbering)
heavy: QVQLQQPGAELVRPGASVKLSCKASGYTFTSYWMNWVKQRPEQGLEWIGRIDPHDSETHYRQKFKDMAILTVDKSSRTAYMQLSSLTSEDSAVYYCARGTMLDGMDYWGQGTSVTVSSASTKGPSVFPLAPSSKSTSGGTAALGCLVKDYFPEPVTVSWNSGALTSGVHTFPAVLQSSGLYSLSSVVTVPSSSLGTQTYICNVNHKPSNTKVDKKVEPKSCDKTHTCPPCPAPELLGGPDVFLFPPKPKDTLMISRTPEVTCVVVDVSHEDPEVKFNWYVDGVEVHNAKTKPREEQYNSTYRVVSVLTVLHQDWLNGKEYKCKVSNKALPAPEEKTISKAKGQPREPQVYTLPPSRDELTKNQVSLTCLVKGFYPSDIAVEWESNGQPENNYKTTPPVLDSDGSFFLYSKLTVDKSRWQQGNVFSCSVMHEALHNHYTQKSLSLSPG
light: QIVLTQSPAIMSASPGEKVTMTCRASSSVSHMHWYQQKSGTSPKRWIYDTSKLASGVPARFSGSGSGTSYSLTISSVEAEDAATYYCQQWSSNPLTFGAGTKLELKRTVAAPSVFIFPPSDEQLKSGTASVVCLLNNFYPREAKVQWKVDNALQSGNSQESVTEQDSKDSTYSLSSTLTLSKADYEKHKVYACEVTHQGLSSPVTKSFNRGEC
notes: copies: 2 + 2
As for B2, the binding result in [2] is on record as “binds”. Further, the “fold increase in binding vs WT” value in assay [7] was above 10 fold; in [8], 8 fold; in assay [9], 12 fold; in assay [6] it was 26 fold.

B3: chCB6-huIgG1 S239D/I332D (antibody, name in EU numbering)
heavy: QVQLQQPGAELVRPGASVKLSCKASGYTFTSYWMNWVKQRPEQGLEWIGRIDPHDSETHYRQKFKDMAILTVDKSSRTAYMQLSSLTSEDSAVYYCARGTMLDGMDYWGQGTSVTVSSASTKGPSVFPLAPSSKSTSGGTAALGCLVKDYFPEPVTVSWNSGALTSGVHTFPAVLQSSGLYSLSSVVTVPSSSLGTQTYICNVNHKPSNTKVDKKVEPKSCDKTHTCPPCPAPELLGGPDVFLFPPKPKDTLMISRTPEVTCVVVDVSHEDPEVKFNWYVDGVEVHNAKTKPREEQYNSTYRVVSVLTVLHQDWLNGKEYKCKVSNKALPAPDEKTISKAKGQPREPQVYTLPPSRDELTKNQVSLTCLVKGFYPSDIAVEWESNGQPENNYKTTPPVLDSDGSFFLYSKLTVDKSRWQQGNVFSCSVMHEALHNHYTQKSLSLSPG
light: QIVLTQSPAIMSASPGEKVTMTCRASSSVSHMHWYQQKSGTSPKRWIYDTSKLASGVPARFSGSGSGTSYSLTISSVEAEDAATYYCQQWSSNPLTFGAGTKLELKRTVAAPSVFIFPPSDEQLKSGTASVVCLLNNFYPREAKVQWKVDNALQSGNSQESVTEQDSKDSTYSLSSTLTLSKADYEKHKVYACEVTHQGLSSPVTKSFNRGEC
notes: copies: 2 + 2
On to B3, for which the binding result in assay [2] is on record as “binds”. Moreover, the “fold increase in binding vs WT” value is above 10 fold in assay [7], 6 fold in assay [8], 4 fold in assay [9] and 15 fold in assay [6].

B4: chCB6-huIgG1 A378Y (antibody, name in EU numbering)
heavy: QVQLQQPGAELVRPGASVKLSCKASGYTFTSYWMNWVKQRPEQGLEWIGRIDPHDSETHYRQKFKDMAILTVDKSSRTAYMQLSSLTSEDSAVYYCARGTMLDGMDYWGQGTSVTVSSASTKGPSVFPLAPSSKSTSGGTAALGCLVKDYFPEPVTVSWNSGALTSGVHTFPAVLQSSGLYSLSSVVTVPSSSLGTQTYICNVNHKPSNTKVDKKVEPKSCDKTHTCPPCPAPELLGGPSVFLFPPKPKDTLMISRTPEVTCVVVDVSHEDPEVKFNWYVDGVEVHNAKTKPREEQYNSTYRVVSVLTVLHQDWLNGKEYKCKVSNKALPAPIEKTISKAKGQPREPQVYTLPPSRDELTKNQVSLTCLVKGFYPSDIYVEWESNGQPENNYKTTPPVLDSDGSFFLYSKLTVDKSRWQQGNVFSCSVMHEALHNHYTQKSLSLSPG
light: QIVLTQSPAIMSASPGEKVTMTCRASSSVSHMHWYQQKSGTSPKRWIYDTSKLASGVPARFSGSGSGTSYSLTISSVEAEDAATYYCQQWSSNPLTFGAGTKLELKRTVAAPSVFIFPPSDEQLKSGTASVVCLLNNFYPREAKVQWKVDNALQSGNSQESVTEQDSKDSTYSLSSTLTLSKADYEKHKVYACEVTHQGLSSPVTKSFNRGEC
notes: copies: 2 + 2
On to B4, for which the “fold increase in binding vs WT” value in [10] was above 5 fold; in [11], 6 fold. Moreover, the binding result in [12] is listed as “binds”.

B5: chCB6-huIgG1 A378W (antibody, name in EU numbering)
heavy: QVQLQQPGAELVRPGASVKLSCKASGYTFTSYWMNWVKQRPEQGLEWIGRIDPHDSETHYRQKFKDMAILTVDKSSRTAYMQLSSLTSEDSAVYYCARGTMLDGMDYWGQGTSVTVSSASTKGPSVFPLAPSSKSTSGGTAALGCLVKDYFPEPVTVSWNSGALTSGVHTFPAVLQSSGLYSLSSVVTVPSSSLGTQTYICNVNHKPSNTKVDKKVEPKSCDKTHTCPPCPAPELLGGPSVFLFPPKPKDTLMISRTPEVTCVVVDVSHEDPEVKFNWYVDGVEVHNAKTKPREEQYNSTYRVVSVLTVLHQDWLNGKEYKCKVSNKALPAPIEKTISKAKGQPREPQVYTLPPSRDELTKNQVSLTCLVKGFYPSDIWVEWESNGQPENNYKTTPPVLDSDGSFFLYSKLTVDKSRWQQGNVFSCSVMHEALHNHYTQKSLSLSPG
light: QIVLTQSPAIMSASPGEKVTMTCRASSSVSHMHWYQQKSGTSPKRWIYDTSKLASGVPARFSGSGSGTSYSLTISSVEAEDAATYYCQQWSSNPLTFGAGTKLELKRTVAAPSVFIFPPSDEQLKSGTASVVCLLNNFYPREAKVQWKVDNALQSGNSQESVTEQDSKDSTYSLSSTLTLSKADYEKHKVYACEVTHQGLSSPVTKSFNRGEC
notes: copies: 2 + 2
In the case of B5, the “fold increase in binding vs WT” value was above 5 fold in assay [10] and 7 fold in assay [11]. Also, the binding result in [12] is “binds”.

B6: chCB6-huIgG1 D376Y (antibody, name in EU numbering)
heavy: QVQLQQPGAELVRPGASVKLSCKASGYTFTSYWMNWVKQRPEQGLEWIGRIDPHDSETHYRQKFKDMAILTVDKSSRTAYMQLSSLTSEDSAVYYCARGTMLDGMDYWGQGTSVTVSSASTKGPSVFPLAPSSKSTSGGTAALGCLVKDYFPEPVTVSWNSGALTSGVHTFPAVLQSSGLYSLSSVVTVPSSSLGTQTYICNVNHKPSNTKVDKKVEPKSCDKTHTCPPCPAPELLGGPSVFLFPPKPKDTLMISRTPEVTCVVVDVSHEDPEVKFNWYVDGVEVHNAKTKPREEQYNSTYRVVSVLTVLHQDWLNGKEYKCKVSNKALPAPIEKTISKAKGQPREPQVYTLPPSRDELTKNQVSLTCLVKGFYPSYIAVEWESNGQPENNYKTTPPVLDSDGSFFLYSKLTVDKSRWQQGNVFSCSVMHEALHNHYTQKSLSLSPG
light: QIVLTQSPAIMSASPGEKVTMTCRASSSVSHMHWYQQKSGTSPKRWIYDTSKLASGVPARFSGSGSGTSYSLTISSVEAEDAATYYCQQWSSNPLTFGAGTKLELKRTVAAPSVFIFPPSDEQLKSGTASVVCLLNNFYPREAKVQWKVDNALQSGNSQESVTEQDSKDSTYSLSSTLTLSKADYEKHKVYACEVTHQGLSSPVTKSFNRGEC
notes: copies: 2 + 2
As to B6, the “fold decrease in binding vs WT” value in assay [2] and in [13] was 3 fold throughout.

B7: chCB6-huIgG1 A378F (antibody, name in EU numbering)
heavy: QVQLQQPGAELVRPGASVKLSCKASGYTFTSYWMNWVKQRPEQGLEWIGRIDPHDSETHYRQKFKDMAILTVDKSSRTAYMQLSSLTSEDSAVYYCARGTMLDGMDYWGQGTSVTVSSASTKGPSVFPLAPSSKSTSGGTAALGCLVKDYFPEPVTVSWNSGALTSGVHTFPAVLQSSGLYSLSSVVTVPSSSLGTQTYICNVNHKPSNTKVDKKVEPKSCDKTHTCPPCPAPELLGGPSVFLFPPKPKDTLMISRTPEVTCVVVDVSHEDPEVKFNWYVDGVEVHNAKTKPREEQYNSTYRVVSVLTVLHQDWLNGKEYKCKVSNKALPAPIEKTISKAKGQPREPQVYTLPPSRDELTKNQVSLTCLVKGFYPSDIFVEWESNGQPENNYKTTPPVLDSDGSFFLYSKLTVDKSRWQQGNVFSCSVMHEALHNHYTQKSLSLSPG
light: QIVLTQSPAIMSASPGEKVTMTCRASSSVSHMHWYQQKSGTSPKRWIYDTSKLASGVPARFSGSGSGTSYSLTISSVEAEDAATYYCQQWSSNPLTFGAGTKLELKRTVAAPSVFIFPPSDEQLKSGTASVVCLLNNFYPREAKVQWKVDNALQSGNSQESVTEQDSKDSTYSLSSTLTLSKADYEKHKVYACEVTHQGLSSPVTKSFNRGEC
notes: copies: 2 + 2
Regarding B7, the “fold increase in binding vs WT” value is above 5 fold in [10] and 6 fold in assay [11]. Further, in assay [12], the binding result was “binds”.

B8: chCB6-huIgG1 triple mutant S298A/E333A/K334A (antibody, name in EU numbering)
heavy: QVQLQQPGAELVRPGASVKLSCKASGYTFTSYWMNWVKQRPEQGLEWIGRIDPHDSETHYRQKFKDMAILTVDKSSRTAYMQLSSLTSEDSAVYYCARGTMLDGMDYWGQGTSVTVSSASTKGPSVFPLAPSSKSTSGGTAALGCLVKDYFPEPVTVSWNSGALTSGVHTFPAVLQSSGLYSLSSVVTVPSSSLGTQTYICNVNHKPSNTKVDKKVEPKSCDKTHTCPPCPAPELLGGPSVFLFPPKPKDTLMISRTPEVTCVVVDVSHEDPEVKFNWYVDGVEVHNAKTKPREEQYNATYRVVSVLTVLHQDWLNGKEYKCKVSNKALPAPIAATISKAKGQPREPQVYTLPPSRDELTKNQVSLTCLVKGFYPSDIAVEWESNGQPENNYKTTPPVLDSDGSFFLYSKLTVDKSRWQQGNVFSCSVMHEALHNHYTQKSLSLSPG
light: QIVLTQSPAIMSASPGEKVTMTCRASSSVSHMHWYQQKSGTSPKRWIYDTSKLASGVPARFSGSGSGTSYSLTISSVEAEDAATYYCQQWSSNPLTFGAGTKLELKRTVAAPSVFIFPPSDEQLKSGTASVVCLLNNFYPREAKVQWKVDNALQSGNSQESVTEQDSKDSTYSLSSTLTLSKADYEKHKVYACEVTHQGLSSPVTKSFNRGEC
notes: Assay control; triple mutant as described by Shields et al; also called Triple Mutation S298A, E333A, K334A; copies: 2 + 2
Consider B8, for which the “ADCC NK cell, purified (fold increase vs WT)” value in assay [1] was 21 fold. The “fold decrease in binding vs WT” value in assay [2] is 2 fold; in assay [4] it was 4 fold. The “fold increase in binding vs WT” value in [3] was found to be 5 fold; in assay [5], 10 fold; in assay [6] it was 4 fold.

B9: chCB6-huIgG1 D376W (antibody, name in EU numbering)
heavy: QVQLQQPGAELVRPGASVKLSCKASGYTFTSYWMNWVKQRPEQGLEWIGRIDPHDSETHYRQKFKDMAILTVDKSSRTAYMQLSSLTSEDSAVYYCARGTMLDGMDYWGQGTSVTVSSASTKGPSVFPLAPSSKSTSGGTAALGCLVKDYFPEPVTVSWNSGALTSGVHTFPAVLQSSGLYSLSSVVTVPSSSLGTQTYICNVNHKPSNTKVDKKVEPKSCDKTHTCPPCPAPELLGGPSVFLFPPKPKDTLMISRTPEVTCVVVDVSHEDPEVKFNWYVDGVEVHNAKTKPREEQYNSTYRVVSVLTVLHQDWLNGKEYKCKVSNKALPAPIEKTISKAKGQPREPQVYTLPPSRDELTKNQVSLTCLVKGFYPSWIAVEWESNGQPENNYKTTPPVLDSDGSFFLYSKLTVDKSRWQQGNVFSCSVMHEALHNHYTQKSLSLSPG
light: QIVLTQSPAIMSASPGEKVTMTCRASSSVSHMHWYQQKSGTSPKRWIYDTSKLASGVPARFSGSGSGTSYSLTISSVEAEDAATYYCQQWSSNPLTFGAGTKLELKRTVAAPSVFIFPPSDEQLKSGTASVVCLLNNFYPREAKVQWKVDNALQSGNSQESVTEQDSKDSTYSLSSTLTLSKADYEKHKVYACEVTHQGLSSPVTKSFNRGEC
notes: copies: 2 + 2
In the case of B9, the entries for the “fold decrease in binding vs WT” value in assay [14], in assay [13] and in assay [12] were above 10 fold, 3 fold and 15 fold, respectively. Moreover, the binding result in assay [11] is on record as “no binding”.

B10: chCB6-huIgG1 D376K (antibody, name in EU numbering)
heavy: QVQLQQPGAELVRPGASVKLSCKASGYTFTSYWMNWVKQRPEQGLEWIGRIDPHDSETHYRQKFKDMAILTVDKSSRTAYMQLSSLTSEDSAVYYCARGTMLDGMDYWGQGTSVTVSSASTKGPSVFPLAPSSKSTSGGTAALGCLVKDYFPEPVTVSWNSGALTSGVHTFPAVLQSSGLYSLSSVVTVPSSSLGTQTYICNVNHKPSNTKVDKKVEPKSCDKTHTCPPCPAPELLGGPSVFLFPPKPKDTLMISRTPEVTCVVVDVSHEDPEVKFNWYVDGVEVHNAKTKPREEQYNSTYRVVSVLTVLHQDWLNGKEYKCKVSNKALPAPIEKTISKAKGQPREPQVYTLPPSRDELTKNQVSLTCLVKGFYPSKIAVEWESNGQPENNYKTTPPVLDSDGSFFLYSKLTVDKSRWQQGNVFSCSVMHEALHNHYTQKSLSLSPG
light: QIVLTQSPAIMSASPGEKVTMTCRASSSVSHMHWYQQKSGTSPKRWIYDTSKLASGVPARFSGSGSGTSYSLTISSVEAEDAATYYCQQWSSNPLTFGAGTKLELKRTVAAPSVFIFPPSDEQLKSGTASVVCLLNNFYPREAKVQWKVDNALQSGNSQESVTEQDSKDSTYSLSSTLTLSKADYEKHKVYACEVTHQGLSSPVTKSFNRGEC
notes: copies: 2 + 2
Consider B10, for which the “fold decrease in binding vs WT” value in assay [14] is above 10 fold; in [12], 15 fold. In addition, the binding result in assay [11] was “binds”.
